Ends that are not written are not given here.
What was measured:
[1] = target: T1, C113WT biotin labeled HCV core peptide (hepatitis C virus, also: biotin labeled, position not given here); assay: EIA; Ab 3.906 ng/mL captured on anti-mouse Fc; bt-peptide 500 ng/mL
T1 peptide: RGSRPSWGPTD

[2] = target: T2, WT1STHV biotin labeled HCV core peptide (hepatitis C virus, biotin labeled); assay: as above
T2 peptide: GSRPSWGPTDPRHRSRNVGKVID

[3] = target: T3, C113T109N biotin labeled HCV core peptide (hepatitis C virus, also: biotin labeled, position not given here); assay: as above
T3 peptide: RGSRPSWGPND

[4] = target: T4, Mut1T110N biotin labeled HCV core peptide (hepatitis C virus, biotin labeled); assay: as above
T4 peptide: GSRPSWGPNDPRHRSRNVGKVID

[5] = target: T5, Mut6T110S biotin labeled HCV core peptide (hepatitis C virus); assay: as above
[6] = target: T1, C113WT biotin labeled HCV core peptide; assay: EIA; Ab 1000 ng/mL captured on anti-mouse Fc; bt-peptide 500 ng/mL
[7] = target: T2, WT1STHV biotin labeled HCV core peptide; assay: as above
[8] = target: T3, C113T109N biotin labeled HCV core …; assay: as above
[9] = target: T4, Mut1T110N biotin labeled HCV core …; assay: as above
[10] = target: T5, Mut6T110S biotin labeled HCV core …; assay: as above
[11] = target: T1, C113WT biotin labeled HCV core peptide; assay: EIA; Ab 500 ng/mL captured on anti-mouse Fc; bt-peptide 500 ng/mL
[12] = target: T2, WT1STHV biotin labeled HCV core peptide; assay: as above
[13] = target: T3, C113T109N biotin labeled HCV core …; assay: as above
[14] = target: T4, Mut1T110N biotin labeled HCV core …; assay: as above
[15] = target: T5, Mut6T110S biotin labeled HCV core …; assay: as above
[16] = target: T1, C113WT biotin labeled HCV core peptide; assay: EIA; Ab 0.977 ng/mL captured on anti-mouse Fc; bt-peptide 500 ng/mL
[17] = target: T2, WT1STHV biotin labeled HCV core peptide; assay: as above
[18] = target: T3, C113T109N biotin labeled HCV core …; assay: as above
[19] = target: T4, Mut1T110N biotin labeled HCV core …; assay: as above
[20] = target: T5, Mut6T110S biotin labeled HCV core …; assay: as above
[21] = target: T1, C113WT biotin labeled HCV core peptide; assay: EIA; Ab 31.25 ng/mL captured on anti-mouse Fc; bt-peptide 500 ng/mL
[22] = target: T2, WT1STHV biotin labeled HCV core peptide; assay: as above
[23] = target: T3, C113T109N biotin labeled HCV core …; assay: as above
[24] = target: T5, Mut6T110S biotin labeled HCV core …; assay: as above
[25] = target: T2, WT1STHV biotin labeled HCV core peptide; assay: EIA; Ab 250 ng/mL captured on anti-mouse Fc; bt-peptide 500 ng/mL
[26] = target: T3, C113T109N biotin labeled HCV core …; assay: as above
[27] = target: T5, Mut6T110S biotin labeled HCV core …; assay: as above

B1: HCV Neo4 monoclonal antibody (antibody, V domains shown)
VH: QIQLKESGPAVIKPSQSLSLTCIVSGFSITSSVYCWQWIRQPPGKGLEWMGRICYDGSVDYSPSITSRGTISRDTSLNKVFFQLSSVTNEDTAMYYCSRENHIDYYDTTYPSFDVWGAGTTVTVSS
VL: DIVLTQSPASLIVSLGQRATISCRASKSVNEYGYTYMHWYQQKPGLPPKLLIYLASNLDSGVPARFSGSGSGTDFTLNIHPVEEEDAATYYCQHSRELPYTFGGGTKLEIKR
- signal at 492 nm [1]: 0.0694 OD 492 nm
- signal at 492 nm [2]: 0.669 OD 492 nm
- signal at 492 nm [3]: 0.0717 OD 492 nm
- signal at 492 nm [4]: 0.0719 OD 492 nm
- signal at 492 nm [5]: 0.0847 OD 492 nm
- signal at 492 nm [6]: 0.222 OD 492 nm
- signal at 492 nm [7]: 2 OD 492 nm
- signal at 492 nm [8]: 0.0591 OD 492 nm
- signal at 492 nm [9]: 0.0678 OD 492 nm
- signal at 492 nm [10]: 1.17 OD 492 nm
- signal at 492 nm [11]: 0.0561 OD 492 nm
- signal at 492 nm [12]: 1.91 OD 492 nm
- signal at 492 nm [13]: 0.0803 OD 492 nm
- signal at 492 nm [14]: 0.065 OD 492 nm
- signal at 492 nm [15]: 1.17 OD 492 nm
- signal at 492 nm [16]: 0.0584 OD 492 nm
- signal at 492 nm [17]: 0.22 OD 492 nm
- signal at 492 nm [18]: 0.0784 OD 492 nm
- signal at 492 nm [19]: 0.0619 OD 492 nm
- signal at 492 nm [20]: 0.0644 OD 492 nm
- signal at 492 nm [21]: 0.0622 OD 492 nm
- signal at 492 nm [22]: 1.67 OD 492 nm
- signal at 492 nm [23]: 0.0815 OD 492 nm
- signal at 492 nm [24]: 0.48 OD 492 nm
- signal at 492 nm [25]: 1.99 OD 492 nm
- signal at 492 nm [26]: 0.111 OD 492 nm
- signal at 492 nm [27]: 1.15 OD 492 nm

Reference: patent publication US20170052184A1 (published 2017)
